Our source for the Kd values is article PMC12604781 (PLOS Pathogens, 2025).

In the assay the target is SUMO-PRV peptide AB (pseudorabies virus (PRV)). The assay can be described thus: ITC.

With “pcGAS^CT (C-terminus, catalytic domain of porcine cGAS) (domain or fragment)”, the Kd amounted to 2920 nM.

In general, Kd refers to the equilibrium constant for the complex coming apart. Read a low Kd as a tighter complex.
